Laboratory results reported in article PMC7318626.

Biological target: Neonatal Fc receptor (FcRn), soluble form (UniProt P55899)
Assay: mass photometry (single-molecule counting of species by mass)
Details: not stated (in the SI)

Chain of UniProt P55899 (P55899 whole entry): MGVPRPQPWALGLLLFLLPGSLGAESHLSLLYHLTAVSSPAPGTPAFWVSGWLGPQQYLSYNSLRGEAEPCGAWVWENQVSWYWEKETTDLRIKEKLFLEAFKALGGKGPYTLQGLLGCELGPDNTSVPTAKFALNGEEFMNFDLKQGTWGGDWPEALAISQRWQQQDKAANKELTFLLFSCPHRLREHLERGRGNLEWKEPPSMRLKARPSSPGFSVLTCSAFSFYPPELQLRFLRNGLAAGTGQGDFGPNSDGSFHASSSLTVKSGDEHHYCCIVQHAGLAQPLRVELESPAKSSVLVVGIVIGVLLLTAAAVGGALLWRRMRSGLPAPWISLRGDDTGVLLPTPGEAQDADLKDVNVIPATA

Kd (pH 5, pH 5, 5.5, 6 and 7)	Kd (pH 5.5, pH 5, 5.5, 6 and 7)	Kd (pH 6, pH 5, 5.5, 6 and 7)	Kd (pH 7, pH 5, 5.5, 6 and 7)	Kd (pH 5, pH 5, 5.5 and 6)	Kd (pH 5.5, pH 5, 5.5 and 6)	Kd (pH 6, pH 5, 5.5 and 6)	Substance
6.6 ± 0.6 nM	3.9 ± 1.5 nM	–	–	–	–	–	Trastuzumab (Herceptin), IgG1 monoclonal antibody, called 'IgG' in the article + Neonatal Fc receptor (FcRn), soluble form
59 ± 8 nM	225 ± 20 nM	>200 nM	>200 nM	–	–	–	Trastuzumab (Herceptin), IgG1 monoclonal antibody, called 'IgG' in the article
44 ± 9 nM	171 ± 19 nM	–	–	31 ± 11 nM	>200 nM	>200 nM	Neonatal Fc receptor (FcRn), soluble form
